Test results: patent US20240272170A1 (QUANTUM SI, published 2024)

What was measured:
[1] = target: T1, QP1165 after cleavage to N-terminal leucine (LKQRVWK); test: on-chip dynamic sequencing of QP1165, 500 nM PS2132 plus five recognizers, 36192 alignments
T1 peptide: LKQRVWK

[2] = target: T2, QP1165 after cleavage to N-terminal isoleucine (IAFLKQRVWK); test: as above
T2 peptide: IAFLKQRVWK

[3] = target: T1, QP1165 after cleavage to N-terminal …; test: on-chip dynamic sequencing of QP1165, PS1875 run, trace Aperture=295010
[4] = target: T2, QP1165 after cleavage to N-terminal …; test: as above
[5] = target: T1, QP1165 after cleavage to N-terminal …; test: on-chip dynamic sequencing of QP1165, PS1875 run, trace Aperture=1377116
Description: The semiconductor chip was placed in the sequencing device and a chip check was performed to test electronic circuit function and to optimize laser coupling alignment. The chip was then removed from the device socket and the chip was washed twice with 50 μL of 70% isopropanol, followed by four washes with 30 μL of wash buffer (50 mM MOPS pH 8.0, 60 mM potassium acetate, 50 mM glucose, 20 mM magnesium acetate, and surfactant mix) through a flow cell attached to the chip. A second chip check was then performed. The laser was then blocked via an integrated software-controlled shutter, peptide complex was added to a final concentration of 1-10 nM and mixed thoroughly, and the chip was incubated for 15 min. The chip was then washed six times with wash buffer, followed by addition of an imaging solution (wash buffer with 5 mM Trolox and an oxygen scavenging system). The laser was unblocked and the occupancy percentage (target 10-30%, Poisson distributed) was recorded by acquiring a photobleaching signal from a fluorophore attached to the peptide complex during 5 min of laser illumination. […] Data was recorded for 15 min. The laser was then blocked briefly and aminopeptidases were added to the sequencing reaction via the flow cell and mixed thoroughly (final concentration 2-8 μM PhTET2 and/or 20-80 μM PhTET3, as indicated according to the experiment). The laser was then unblocked, and data was recorded for 10 hours. For all runs, 30 μL of mineral oil was added to fluid reservoirs at each port of the flow cell to prevent evaporation during the run.

[6] = target: T1, QP1165 after cleavage to N-terminal …; test: on-chip dynamic sequencing of QP1165, 500 nM PS1875 plus five recognizers, 7305 alignments
[7] = target: T1, QP1165 after cleavage to N-terminal …; test: on-chip dynamic sequencing of QP1165, PS2121 run, trace Aperture=1683362
[8] = target: T2, QP1165 after cleavage to N-terminal …; test: as above

IPD (interpulse duration) [1]: 17.4 s
PD (pulse duration) [1]: 0.54 s
IPD (interpulse duration) [2]: 9.74 s
PD (pulse duration) [2]: 0.66 s
PD of a recognition segment in an example trace [3]: 3.19 s
PD of a recognition segment in an example trace [4]: 0.48 s
PD of a recognition segment in an example trace [5]: 0.68 s
IPD (interpulse duration) [6]: 15.4 s
PD (pulse duration) [6]: 0.65 s
PD of a recognition segment in an example trace [7]: 0.28 s
PD of a recognition segment in an example trace [8]: 0.52 s
B1: PS1223 (designed binder)
single polypeptide, two PS961 units in tandem: MPTAASATESAIEDTPAPARPEVDGRTKPKRQPRYHVVLWDDDDHTYQYVVVMLRSLFGHPPSRGYRMAKEMDTQGRVIVLTTTREHAELKRDQIHAFGRDRLLARSKGSMKASIEAEEGSAGSAAGSGEFGSAGSAAGSGEFGSAGSAAGSGEFMPTAASATESAIEDTPAPARPEVDGRTKPKRQPRYHVVLWDDDDHTYQYVVVMLRSLFGHPPSRGYRMAKEMDTQGRVIVLTTTREHAELKRDQIHAFGRDRLLARSKGSMKASIEAEE
notes: dye-labelled recognizer for N-terminal L, I, V in the six-recognizer runs; also called PS1223 (LIV)
